Target: human F0F1-ATP synthase (complex V) (human)
Experiment: cell-based or functional assay

B1: mature CrATP6F polypeptide (Chlamydomonas reinhardtii ATPase 6 subunit of F0F1-ATP synthase with C-terminal FLAG epitope tag, after cleavage of the … (protein)
chain: STAAQVQSGATVNSLLLGIYRFWRSQAPMDKPHAPVDDRMLPAIVDASDNRAALGTWATALFCTILASNLLGLVPTNEAPTSGLGFATGLGVSVWATATTLGLYKLGFSFPGHFIPGGTPWPMAFIFVPLETISYTFRAVSLGVRLWVNMLAGHTLLHILTGMALALPFSLSFFAMVPATFAVACLLSALVGLEYLVAVLQSGVFSILSTVYVGEFNSVKLAGPLAKVVKKALDYKDDDDK
mitochondrial (oligomycin-sensitive) ATP synthesis in mutant (8993G) cybrids stably transfected with pCrA6F, against untransfected mutant cybrids: 75%
